Where two headings read alike, the source gives them in different places. Ends that are not written are not given here.
How the values were obtained:
[1] = target: chicken GCRP receptor (chicken)
[2] = target: chicken GLP1R (chicken)
[3] = target: chimeric chGCRPR/chGLP1R (chicken)
[4] = target: chimeric chGCRPR/huGLP1R (chicken | human) (UniProt P43220)
[5] = target: Xenopus GCRP receptor (Xenopus); test: radioligand binding; competitive displacement on HEK293T cells transfected with GCRPR (300 ng DNA/well, 12-well plates); 100,000 cpm 125I-chGCRP without or with various concentrations of cold peptides, 1 h, binding buffer (serum-free DMEM with 0.1% BSA, pH 7.4); IC50 by nonlinear regression
[6] = target: chicken GCRP receptor (chicken); test: as above
[7] = target: Xenopus GCRP receptor (Xenopus)
[8] = target: chicken GCRP receptor (chicken); remark: listed apart in the source
[9] = target: medaka GCRP receptor (medaka)
[10] = target: human GCGR (human) (UniProt P47871)
[11] = target: human GIPR (human) (UniProt P48546)
[12] = target: human GLP1R (human) (UniProt P43220)
[13] = target: Xenopus GCRP receptor (Xenopus); remark: listed apart in the source
[14] = target: Xenopus GCRP receptor (Xenopus); test: radioligand binding; competitive displacement on HEK293T cells transfected with GCRPR (300 ng DNA/well, 12-well plates); 100,000 cpm 125I-chGCRP without or with various concentrations of cold peptides, 1 h, binding buffer (serum-free DMEM with 0.1% BSA, pH 7.4); IC50 by nonlinear regression; remark: listed apart in the source
[15] = target: human GLP2R (human) (UniProt O95838)
[16] = target: chicken GCRP receptor (chicken); remark: listed apart in the source
[17] = target: chicken GCRP receptor (chicken); test: radioligand binding; competitive displacement on HEK293T cells transfected with GCRPR (300 ng DNA/well, 12-well plates); 100,000 cpm 125I-chGCRP without or with various concentrations of cold peptides, 1 h, binding buffer (serum-free DMEM with 0.1% BSA, pH 7.4); IC50 by nonlinear regression; remark: listed apart in the source
[18] = target: medaka GCRP receptor (medaka); remark: listed apart in the source
[19] = target: medaka GCRP receptor (medaka); remark: listed apart in the source
[20] = target: medaka GCRP receptor (medaka); test: radioligand binding; competitive displacement on HEK293T cells transfected with GCRPR (300 ng DNA/well, 12-well plates); 100,000 cpm 125I-chGCRP without or with various concentrations of cold peptides, 1 h, binding buffer (serum-free DMEM with 0.1% BSA, pH 7.4); IC50 by nonlinear regression
[21] = target: medaka GCRP receptor (medaka); test: as above; remark: listed apart in the source

Chain of chimeric chGCRPR/huGLP1R (chicken | human) (P43220 whole entry, change not shown): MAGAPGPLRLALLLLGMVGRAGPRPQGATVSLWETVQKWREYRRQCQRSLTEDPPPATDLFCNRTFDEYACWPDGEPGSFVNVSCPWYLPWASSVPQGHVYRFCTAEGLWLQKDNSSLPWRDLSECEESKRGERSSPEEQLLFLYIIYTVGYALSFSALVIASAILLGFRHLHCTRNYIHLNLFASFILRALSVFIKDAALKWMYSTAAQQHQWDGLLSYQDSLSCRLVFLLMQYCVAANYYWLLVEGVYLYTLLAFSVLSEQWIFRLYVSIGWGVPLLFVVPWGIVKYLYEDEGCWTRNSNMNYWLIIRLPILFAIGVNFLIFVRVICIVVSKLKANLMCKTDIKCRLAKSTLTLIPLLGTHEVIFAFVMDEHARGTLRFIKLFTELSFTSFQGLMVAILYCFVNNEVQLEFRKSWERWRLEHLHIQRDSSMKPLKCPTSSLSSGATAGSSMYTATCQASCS
Chain of human GIPR (human) (P48546 22-466): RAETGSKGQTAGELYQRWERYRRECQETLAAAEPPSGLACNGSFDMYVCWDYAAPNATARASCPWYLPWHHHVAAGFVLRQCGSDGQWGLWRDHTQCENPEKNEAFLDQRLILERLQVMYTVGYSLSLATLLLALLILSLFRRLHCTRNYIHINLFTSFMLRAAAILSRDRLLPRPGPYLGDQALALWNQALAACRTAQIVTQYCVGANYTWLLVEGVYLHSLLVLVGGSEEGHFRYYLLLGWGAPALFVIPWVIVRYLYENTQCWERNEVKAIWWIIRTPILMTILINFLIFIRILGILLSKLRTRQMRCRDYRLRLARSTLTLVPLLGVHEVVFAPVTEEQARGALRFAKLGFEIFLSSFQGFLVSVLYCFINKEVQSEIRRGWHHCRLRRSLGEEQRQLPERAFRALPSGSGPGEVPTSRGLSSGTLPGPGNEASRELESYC
Chain of human GCGR (human) (P47871 26-477): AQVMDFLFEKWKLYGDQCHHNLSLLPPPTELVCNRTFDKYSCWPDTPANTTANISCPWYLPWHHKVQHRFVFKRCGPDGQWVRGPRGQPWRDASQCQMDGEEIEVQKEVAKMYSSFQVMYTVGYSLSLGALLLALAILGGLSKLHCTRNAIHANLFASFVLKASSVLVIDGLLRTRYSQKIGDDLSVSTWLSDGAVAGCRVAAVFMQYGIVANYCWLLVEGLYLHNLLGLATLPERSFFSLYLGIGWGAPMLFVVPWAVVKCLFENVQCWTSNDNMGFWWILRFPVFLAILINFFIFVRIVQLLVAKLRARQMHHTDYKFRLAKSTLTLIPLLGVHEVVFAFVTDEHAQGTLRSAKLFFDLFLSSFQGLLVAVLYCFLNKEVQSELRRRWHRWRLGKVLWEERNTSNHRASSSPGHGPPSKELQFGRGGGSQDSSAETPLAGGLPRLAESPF
Chain of human GLP1R (human) (P43220 24-463): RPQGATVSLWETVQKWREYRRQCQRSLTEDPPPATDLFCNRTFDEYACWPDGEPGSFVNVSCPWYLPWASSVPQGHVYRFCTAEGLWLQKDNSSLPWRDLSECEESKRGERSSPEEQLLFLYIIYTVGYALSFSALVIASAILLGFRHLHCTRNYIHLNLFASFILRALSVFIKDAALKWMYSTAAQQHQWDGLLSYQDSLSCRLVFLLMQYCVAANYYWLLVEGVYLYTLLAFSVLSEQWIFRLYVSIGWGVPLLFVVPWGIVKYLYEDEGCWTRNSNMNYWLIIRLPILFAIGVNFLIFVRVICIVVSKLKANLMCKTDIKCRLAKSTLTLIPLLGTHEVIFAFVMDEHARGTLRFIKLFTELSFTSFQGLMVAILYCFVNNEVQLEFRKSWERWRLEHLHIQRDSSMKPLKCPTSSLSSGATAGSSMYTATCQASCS
Chain of human GLP2R (human) (O95838 whole entry): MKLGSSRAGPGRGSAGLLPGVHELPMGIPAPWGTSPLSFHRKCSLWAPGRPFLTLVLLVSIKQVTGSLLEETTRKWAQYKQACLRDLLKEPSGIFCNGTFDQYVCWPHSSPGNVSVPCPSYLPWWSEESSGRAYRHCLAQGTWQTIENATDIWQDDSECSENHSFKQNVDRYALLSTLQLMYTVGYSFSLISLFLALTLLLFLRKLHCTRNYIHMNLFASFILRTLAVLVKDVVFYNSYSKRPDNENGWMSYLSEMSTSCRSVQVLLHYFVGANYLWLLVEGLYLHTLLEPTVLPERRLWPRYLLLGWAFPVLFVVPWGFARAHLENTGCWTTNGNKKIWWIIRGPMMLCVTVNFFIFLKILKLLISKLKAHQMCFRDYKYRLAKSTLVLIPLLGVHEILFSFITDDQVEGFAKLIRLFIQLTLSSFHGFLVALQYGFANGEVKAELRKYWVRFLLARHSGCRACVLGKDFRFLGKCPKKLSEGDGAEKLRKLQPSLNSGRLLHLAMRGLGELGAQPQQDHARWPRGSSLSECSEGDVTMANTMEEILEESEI

B1: Chicken GLP1 (peptide)
peptide: HAEGTYTSDITSYLEGQAAKEFIAWLVNGR
modifications: also: unexplained 'a' after last residue
CRE-luc reporter, HEK293T cells with the receptor: EC50 [1]: 18.3 nM | CRE-luc reporter, HEK293T cells with the receptor: Emax (fold induction) [1]: 5.8 | CRE-luc reporter, HEK293T cells with the receptor: EC50 [2]: 0.2 nM | CRE-luc reporter, HEK293T cells with the receptor: Emax (fold induction) [2]: 28.2 | CRE-luc reporter, HEK293T cells with the receptor: EC50 [3]: 1.52 nM | CRE-luc reporter, HEK293T cells with the receptor: Emax (fold induction) [3]: 12.6 | CRE-luc reporter, HEK293T cells with the receptor: EC50 [4]: 2.29 nM | CRE-luc reporter, HEK293T cells with the receptor: Emax (fold induction) [4]: 91.9 | IC50 [5]: > 1000 nM | IC50 [6]: > 1000 nM

B2: Xenopus GCRP (peptide)
peptide: HSEGTFSSDLTRYLDKMKAKDFVQWLMN
CRE-luc reporter, HEK293T cells with the receptor: EC50 [7]: 2.24 nM | CRE-luc reporter, HEK293T cells with the receptor: Emax (fold induction) [7]: 30.4 | CRE-luc reporter, HEK293T cells with the receptor: EC50 [8]: 1.18 nM | CRE-luc reporter, HEK293T cells with the receptor: Emax (fold induction) [8]: 6.25 | CRE-luc reporter, HEK293T cells with the receptor: EC50 [9]: 30.6 nM | CRE-luc reporter, HEK293T cells with the receptor: Emax (fold induction) [9]: 8.1 | CRE-luc reporter, HEK293T cells with the receptor: EC50 [10]: 182 nM | CRE-luc reporter, HEK293T cells with the receptor: Emax (fold induction) [10]: 2.09 | CRE-luc reporter, HEK293T cells with the receptor: Emax (fold induction) [11]: 1.95 | CRE-luc reporter, HEK293T cells with the receptor: EC50 [12]: > 1000 nM | CRE-luc reporter, HEK293T cells with the receptor: Emax (fold induction) [12]: 24.1 | cAMP level by Glosensor-22F luminescence in HEK293T cells with the receptor: EC50 [13]: 46 nM | IC50 [5]: 65.5 nM | IC50 [14]: 63 nM

B3: Chicken GIP (peptide)
peptide: YSEATLASDYSRTMDNMLKKNFVEWLLARREKKSDNVIEPY
CRE-luc reporter, HEK293T cells with the receptor: EC50 [7]: 274 nM | CRE-luc reporter, HEK293T cells with the receptor: Emax (fold induction) [7]: 32.4 | CRE-luc reporter, HEK293T cells with the receptor: EC50 [8]: 69.2 nM | CRE-luc reporter, HEK293T cells with the receptor: Emax (fold induction) [8]: 6.22

B4: Chicken GLP2 (peptide)
peptide: HADGTFTSDINKILDDMAAKEFLKWLINTKVTQ
CRE-luc reporter, HEK293T cells with the receptor: EC50 [8]: 33.4 nM | CRE-luc reporter, HEK293T cells with the receptor: Emax (fold induction) [8]: 6.26

B5: Chicken GCRP (peptide)
peptide: HSEGTFTSDFTRYLDKMKAKDFVHWLINT
CRE-luc reporter, HEK293T cells with the receptor: EC50 [7]: 5.86 nM | CRE-luc reporter, HEK293T cells with the receptor: Emax (fold induction) [7]: 30.1 | CRE-luc reporter, HEK293T cells with the receptor: EC50 [8]: 0.87 nM | CRE-luc reporter, HEK293T cells with the receptor: Emax (fold induction) [8]: 6 | CRE-luc reporter, HEK293T cells with the receptor: EC50 [9]: 33.7 nM | CRE-luc reporter, HEK293T cells with the receptor: Emax (fold induction) [9]: 8.12 | CRE-luc reporter, HEK293T cells with the receptor: EC50 [10]: 42.7 nM | CRE-luc reporter, HEK293T cells with the receptor: Emax (fold induction) [10]: 6.32 | CRE-luc reporter, HEK293T cells with the receptor: Emax (fold induction) [11]: 3.03 | CRE-luc reporter, HEK293T cells with the receptor: EC50 [12]: 48.9 nM | CRE-luc reporter, HEK293T cells with the receptor: Emax (fold induction) [12]: 19.8 | CRE-luc reporter, HEK293T cells with the receptor: EC50 [15]: 592 nM | CRE-luc reporter, HEK293T cells with the receptor: Emax (fold induction) [15]: 6.32 | CRE-luc reporter, HEK293T cells with the receptor: EC50 [1]: 0.32 nM | CRE-luc reporter, HEK293T cells with the receptor: Emax (fold induction) [1]: 5.56 | CRE-luc reporter, HEK293T cells with the receptor: EC50 [2]: 8.03 nM | CRE-luc reporter, HEK293T cells with the receptor: Emax (fold induction) [2]: 19.2 | CRE-luc reporter, HEK293T cells with the receptor: EC50 [3]: 8.57 nM | CRE-luc reporter, HEK293T cells with the receptor: Emax (fold induction) [3]: 7.3 | CRE-luc reporter, HEK293T cells with the receptor: EC50 [4]: 9.44 nM | CRE-luc reporter, HEK293T cells with the receptor: Emax (fold induction) [4]: 62.9 | cAMP level by Glosensor-22F luminescence in HEK293T cells with the receptor: EC50 [16]: 5.8 nM | IC50 [6]: 43.5 nM | IC50 [17]: 43.6 nM

B6: Human GIP (peptide)
peptide: YAEGTFISDYSIAMDKIHQQDFVNWLLAQKGKKNDWKHNITQ
CRE-luc reporter, HEK293T cells with the receptor: Emax (fold induction) [11]: 5.21

B7: Medaka GCRP (peptide)
peptide: HTDGMFTSDLTNYLDKMKAKNFVEWLAAIKQQE
CRE-luc reporter, HEK293T cells with the receptor: EC50 [7]: 94.6 nM | CRE-luc reporter, HEK293T cells with the receptor: Emax (fold induction) [7]: 32 | CRE-luc reporter, HEK293T cells with the receptor: EC50 [8]: 68.2 nM | CRE-luc reporter, HEK293T cells with the receptor: Emax (fold induction) [8]: 6.93 | CRE-luc reporter, HEK293T cells with the receptor: EC50 [9]: 6.84 nM | CRE-luc reporter, HEK293T cells with the receptor: Emax (fold induction) [9]: 7.9 | CRE-luc reporter, HEK293T cells with the receptor: EC50 [10]: 175 nM | CRE-luc reporter, HEK293T cells with the receptor: Emax (fold induction) [10]: 2.27 | CRE-luc reporter, HEK293T cells with the receptor: Emax (fold induction) [11]: 2.11 | CRE-luc reporter, HEK293T cells with the receptor: EC50 [12]: 156 nM | CRE-luc reporter, HEK293T cells with the receptor: Emax (fold induction) [12]: 20.9 | CRE-luc reporter, HEK293T cells with the receptor: EC50 [18]: 6.76 nM | cAMP level by Glosensor-22F luminescence in HEK293T cells with the receptor: EC50 [19]: 1.15 nM | IC50 [20]: 327 nM | IC50 [21]: 320 nM

B8: Medaka GCG1 (peptide)
peptide: HSEGTFSNDYSKYLEDRKAQDFVRWLMNN
CRE-luc reporter, HEK293T cells with the receptor: EC50 [9]: 108 nM | CRE-luc reporter, HEK293T cells with the receptor: Emax (fold induction) [9]: 4.26
